According to PMC2954210, “Structure of an essential bacterial protein YeaZ (TM0874) from Thermotoga maritima at 2.5 Å resolution” (Acta Crystallographica Section F: Structural Biology and …, 2009):

Target: the molecule itself
Experiment: SEC-MALS; Superdex 200 column coupled with miniDAWN static light-scattering and Optilab refractive-index detectors; 20 mM Tris-HCl pH 7.9, 150 mM NaCl, 0.02% sodium azide

B1: YeaZ (TM0874) from Thermotoga maritima (natural protein, UniProt Q9WZX7 1-206, looked up)
chain: MNVLALDTSQRIRIGLRKGEDLFEISYTGEKKHAEILPVVVKKLLDELDLKVKDLDVVGVGIGPGGLTGLRVGIATVVGLVSPYDIPVAPLNSFEMTAKSCPADGVVLVARRARKGYHYCAVYLKDKGLNPLKEPSVVSDEELEEITKEFSPKIVLKDDLLISPAVLVEESERLFREKKTIHYYEIEPLYLQKSIAELNWEKKKRG
modifications: selenomethionine derivative
notes: YeaZ (TM0874), Thermotoga maritima, full-length protein, residues 1-206; Swiss-Prot Q9WZX7; Cloned into plasmid pMH4; In the crystal model residues 1-193 (chain A) and 0-187 (chain B) are ordered; residue 0 is the last residue of the His tag; also called TmYeaZ; His-tagged SeMet-TmYeaZ; source: E. coli GeneHogs, selenomethionine-containing medium, purified (nickel-chelating resin, Resource Q)
In the case of B1, the “stoichiometry N” value is reported as 2.
